Source: paper PMC2756588

T1: Bzz1-2, P38822
T1 sequence (P38822 568-633, looked up): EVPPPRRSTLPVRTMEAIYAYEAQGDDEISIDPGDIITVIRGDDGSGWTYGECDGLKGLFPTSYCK

T2: Lsb1, P53281
T2 sequence (P53281 45-122, looked up): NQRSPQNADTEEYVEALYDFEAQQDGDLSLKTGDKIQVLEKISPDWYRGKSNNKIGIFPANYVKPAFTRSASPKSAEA

T3: Cyk3, Q07533
T3 sequence (Q07533 1-83, looked up): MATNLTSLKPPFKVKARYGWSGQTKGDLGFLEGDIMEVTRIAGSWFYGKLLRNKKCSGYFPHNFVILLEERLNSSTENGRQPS

T4: Abp1, P15891
T4 sequence (P15891 535-592, looked up): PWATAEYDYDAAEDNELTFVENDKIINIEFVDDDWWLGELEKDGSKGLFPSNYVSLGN

T5: Bud14, P27637
T5 sequence (P27637 247-328, looked up): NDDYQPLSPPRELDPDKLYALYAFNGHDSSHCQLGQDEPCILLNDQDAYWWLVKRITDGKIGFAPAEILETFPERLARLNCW

T6: Lsb3, P43603
T6 sequence (P43603 385-451, looked up): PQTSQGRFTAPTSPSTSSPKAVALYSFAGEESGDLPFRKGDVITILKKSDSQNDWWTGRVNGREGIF

T7: Pex13, P80667
T7 sequence (P80667 295-386, looked up): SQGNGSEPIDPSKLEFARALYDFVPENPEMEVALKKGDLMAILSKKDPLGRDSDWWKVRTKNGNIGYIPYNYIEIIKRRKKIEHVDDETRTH

T8: Bzz1-1, P38822
T8 sequence (P38822 478-572, looked up): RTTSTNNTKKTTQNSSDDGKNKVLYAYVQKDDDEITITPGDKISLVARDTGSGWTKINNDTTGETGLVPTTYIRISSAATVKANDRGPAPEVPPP

T9: Lsb4, P32793
T9 sequence (P32793 402-468, looked up): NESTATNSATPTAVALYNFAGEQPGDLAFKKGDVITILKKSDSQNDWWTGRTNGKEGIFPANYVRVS

T10: Hof1, Q05080
T10 sequence (Q05080 590-669, looked up): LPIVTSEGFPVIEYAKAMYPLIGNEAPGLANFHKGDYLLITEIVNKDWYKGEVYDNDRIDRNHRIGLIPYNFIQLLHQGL

T11: Nbp2, Q12163
T11 sequence (Q12163 103-180, looked up): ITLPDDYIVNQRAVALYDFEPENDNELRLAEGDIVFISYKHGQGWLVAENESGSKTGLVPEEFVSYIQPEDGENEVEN

T12: Hse1, P38753
T12 sequence (P38753 208-285, looked up): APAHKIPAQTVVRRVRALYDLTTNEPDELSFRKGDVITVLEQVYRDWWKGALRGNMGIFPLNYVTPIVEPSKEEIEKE

T13: Pin3, Q06449
T13 sequence (Q06449 53-122, looked up): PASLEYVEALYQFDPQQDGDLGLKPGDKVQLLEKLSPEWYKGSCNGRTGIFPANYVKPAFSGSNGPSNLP

T14: Cdc25, P04821
T14 sequence (P04821 50-136, looked up): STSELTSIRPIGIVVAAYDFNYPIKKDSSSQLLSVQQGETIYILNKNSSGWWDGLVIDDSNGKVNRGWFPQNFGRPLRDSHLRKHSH

T15: Boi1, P38041
T15 sequence (P38041 1-86, looked up): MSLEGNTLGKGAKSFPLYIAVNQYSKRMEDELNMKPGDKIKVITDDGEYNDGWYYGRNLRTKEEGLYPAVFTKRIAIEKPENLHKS

T16: Myo5, Q04439
T16 sequence (Q04439 1072-1160, looked up): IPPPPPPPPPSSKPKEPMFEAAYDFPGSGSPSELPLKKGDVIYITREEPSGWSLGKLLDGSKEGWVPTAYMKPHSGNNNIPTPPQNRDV

T17: Sla1-2, P32790
T17 sequence (P32790 60-140, looked up): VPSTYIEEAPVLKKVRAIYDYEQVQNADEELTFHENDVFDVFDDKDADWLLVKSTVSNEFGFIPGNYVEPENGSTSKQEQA

T18: Bbc1, P47068
T18 sequence (P47068 1-78, looked up): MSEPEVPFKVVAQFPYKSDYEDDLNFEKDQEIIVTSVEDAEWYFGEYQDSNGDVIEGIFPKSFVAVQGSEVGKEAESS

T19: Sla1-3, P32790
T19 sequence (P32790 344-424, looked up): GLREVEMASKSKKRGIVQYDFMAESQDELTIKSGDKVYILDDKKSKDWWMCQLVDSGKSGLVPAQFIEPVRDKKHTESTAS

T20: Boi2, P39969
T20 sequence (P39969 32-116, looked up): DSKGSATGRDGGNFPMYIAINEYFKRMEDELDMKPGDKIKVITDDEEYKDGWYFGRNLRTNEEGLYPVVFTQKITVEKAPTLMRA

T21: Fus1, P11710
T21 sequence (P11710 432-512, looked up): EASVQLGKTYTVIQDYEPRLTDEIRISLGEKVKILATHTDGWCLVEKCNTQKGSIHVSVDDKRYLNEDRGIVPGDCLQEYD


What was measured:
Assay in all cases: SPOT array
Bzz1-2, P38822 = molecular target: T1, Bzz1-2, P38822; conditions: median of control spots 4538
Lsb1, P53281 = molecular target: T2, Lsb1, P53281; conditions: median of control spots 388
Rvs167, P39743 = conditions: median of control spots 2707
Sequence of Rvs167, P39743 (P39743 419-482): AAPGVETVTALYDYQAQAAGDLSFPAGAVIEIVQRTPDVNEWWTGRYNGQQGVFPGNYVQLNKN

Myo3, P36006 = conditions: median of control spots 468
Cyk3, Q07533 = molecular target: T3, Cyk3, Q07533; conditions: median of control spots 1451
Bem1-1, P29366 = conditions: median of control spots 4282
Sequence of Bem1-1, P29366 (P29366 55-141): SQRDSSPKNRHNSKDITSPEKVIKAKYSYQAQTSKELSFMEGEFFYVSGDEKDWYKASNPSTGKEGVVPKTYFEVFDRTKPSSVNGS

Abp1, P15891 = molecular target: T4, Abp1, P15891; conditions: median of control spots 935
Bud14, P27637 = molecular target: T5, Bud14, P27637; conditions: median of control spots 956
Lsb3, P43603 = molecular target: T6, Lsb3, P43603; conditions: median of control spots 406
Pex13, P80667 = molecular target: T7, Pex13, P80667; conditions: median of control spots 1341
GST = conditions: median of control spots 978
Bzz1-1, P38822 = molecular target: T8, Bzz1-1, P38822; conditions: median of control spots 4446
Lsb4, P32793 = molecular target: T9, Lsb4, P32793; conditions: median of control spots 397
Hof1, Q05080 = molecular target: T10, Hof1, Q05080; conditions: median of control spots 4086
Bem1-2, P29366 = conditions: median of control spots 4347
Sequence of Bem1-2, P29366 (P29366 139-227): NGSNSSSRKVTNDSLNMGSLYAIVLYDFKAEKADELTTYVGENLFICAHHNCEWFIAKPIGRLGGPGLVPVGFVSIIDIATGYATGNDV

Sho1, P40073 = conditions: median of control spots 1148
Sequence of Sho1, P40073 (P40073 287-367): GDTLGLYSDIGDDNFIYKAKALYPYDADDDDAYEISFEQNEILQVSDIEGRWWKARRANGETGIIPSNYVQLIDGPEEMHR

Nbp2, Q12163 = molecular target: T11, Nbp2, Q12163; conditions: median of control spots 357
Hse1, P38753 = molecular target: T12, Hse1, P38753; conditions: median of control spots 1727
Pin3, Q06449 = molecular target: T13, Pin3, Q06449; conditions: median of control spots 2171
Cdc25, P04821 = molecular target: T14, Cdc25, P04821; conditions: median of control spots 969
Boi1, P38041 = molecular target: T15, Boi1, P38041; conditions: median of control spots 1162
Myo5, Q04439 = molecular target: T16, Myo5, Q04439; conditions: median of control spots 471
Sla1-2, P32790 = molecular target: T17, Sla1-2, P32790; conditions: median of control spots 712
Bbc1, P47068 = molecular target: T18, Bbc1, P47068; conditions: median of control spots 796
Sla1-3, P32790 = molecular target: T19, Sla1-3, P32790; conditions: median of control spots 5475
Boi2, P39969 = molecular target: T20, Boi2, P39969; conditions: median of control spots 1161
Fus1, P11710 = molecular target: T21, Fus1, P11710; conditions: median of control spots 1200

Row | Binder | SPOT intensity (Bzz1-2, P38822) | SPOT intensity (Lsb1, P53281) | SPOT intensity (Rvs167, P39743) | SPOT intensity (Myo3, P36006) | SPOT intensity (Cyk3, Q07533) | SPOT intensity (Bem1-1, P29366) | SPOT intensity (Abp1, P15891) | SPOT intensity (Bud14, P27637) | SPOT intensity (Lsb3, P43603) | SPOT intensity (Pex13, P80667) | SPOT intensity (GST) | SPOT intensity (Bzz1-1, P38822) | SPOT intensity (Lsb4, P32793) | SPOT intensity (Hof1, Q05080) | SPOT intensity (Bem1-2, P29366) | SPOT intensity (Sho1, P40073) | SPOT intensity (Nbp2, Q12163) | SPOT intensity (Hse1, P38753) | SPOT intensity (Pin3, Q06449) | SPOT intensity (Cdc25, P04821) | also measured
1 | LASNSPPVYPKRIRH | 0 | 0 | 0 | 0 | 0 | 0 | 68 | 0 | 167 | 3 | 0 | 0 | 107 | 1 | 0 | 7 | 0 | 1 | 0 | 0 | SPOT intensity (Boi1, P38041): 0; SPOT intensity (Myo5, Q04439): 0; SPOT intensity (Sla1-2, P32790): 0; SPOT intensity (Bbc1, P47068): 4; SPOT intensity (Sla1-3, P32790): 0; SPOT intensity (Boi2, P39969): 0; SPOT intensity (Fus1, P11710): 0
2 | QRIRKIPGIPLMSVG | 13 | 78 | 156 | 28 | 2 | 0 | 110 | 9 | 51 | 90 | 0 | 0 | 24 | 13 | 0 | 42 | 5 | 7 | 71 | 2 | SPOT intensity (Boi1, P38041): 0; SPOT intensity (Myo5, Q04439): 7; SPOT intensity (Sla1-2, P32790): 4; SPOT intensity (Bbc1, P47068): 16; SPOT intensity (Sla1-3, P32790): 8; SPOT intensity (Boi2, P39969): 0; SPOT intensity (Fus1, P11710): 6
3 | EQEEIAPSLPSRNSI | 1 | 20 | 31 | 0 | 1 | 1 | 0 | 0 | 998 | 417 | 2 | 0 | 517 | 2 | 1 | 0 | 0 | 0 | 0 | 1 | SPOT intensity (Boi1, P38041): 0; SPOT intensity (Myo5, Q04439): 0; SPOT intensity (Sla1-2, P32790): 0; SPOT intensity (Bbc1, P47068): 0; SPOT intensity (Sla1-3, P32790): 0; SPOT intensity (Boi2, P39969): 1; SPOT intensity (Fus1, P11710): 0
4 | EAEEAAPQLPSRSSA | 2 | 62 | 75 | 0 | 0 | 0 | 0 | 0 | 956 | 6 | 0 | 2 | 529 | 0 | 0 | 0 | 0 | 0 | 2 | 2 | SPOT intensity (Boi1, P38041): 1; SPOT intensity (Myo5, Q04439): 0; SPOT intensity (Sla1-2, P32790): 0; SPOT intensity (Bbc1, P47068): 0; SPOT intensity (Sla1-3, P32790): 2; SPOT intensity (Boi2, P39969): 1; SPOT intensity (Fus1, P11710): 1
5 | QGYPRQPQRPQRYHP | 0 | 1 | 0 | 0 | 1 | 0 | 9 | 1 | 46 | 7 | 1 | 0 | 16 | 3 | 1 | 0 | 0 | 3 | 2 | 0 | SPOT intensity (Boi1, P38041): 0; SPOT intensity (Myo5, Q04439): 0; SPOT intensity (Sla1-2, P32790): 0; SPOT intensity (Bbc1, P47068): 34; SPOT intensity (Sla1-3, P32790): 0; SPOT intensity (Boi2, P39969): 0; SPOT intensity (Fus1, P11710): 0
6 | SAPDIPPRSPNRNAH | 0 | 857 | 816 | 0 | 0 | 0 | 8 | 2 | 207 | 21 | 0 | 0 | 145 | 0 | 0 | 0 | 0 | 0 | 4 | 0 | SPOT intensity (Boi1, P38041): 240; SPOT intensity (Myo5, Q04439): 0; SPOT intensity (Sla1-2, P32790): 423; SPOT intensity (Bbc1, P47068): 1; SPOT intensity (Sla1-3, P32790): 3; SPOT intensity (Boi2, P39969): 312; SPOT intensity (Fus1, P11710): 0
